According to US20140113854A1:

Columns and labels:
Human α-thrombin (human) [1] = target: Human α-thrombin (human) (UniProt P00734); experiment: inhibition of thrombin by monovalent active-site moiety; conditions not given at the table
Human α-thrombin (human) [2] = target: Human α-thrombin (human) (UniProt P00734); experiment: inhibition of thrombin-catalysed hydrolysis of chromogenic substrate S-2238, 37 °C

In the case of Ac-dFPR (peptide), the Ki (Human α-thrombin (human) [1]) is reported as 170000 nM.

Bbs-R-(d-Pip)-G-NH2 (peptide) gave a Ki (Human α-thrombin (human) [1]) of 2260 nM.

Bbs-R-(d-Pip)-NH2 (peptide) was tested, and the Ki (Human α-thrombin (human) [1]) was 1130 nM.

Substance Bbs-R-(d-Pip)-W-NH2 (peptide) has a Ki (Human α-thrombin (human) [1]) of 6000 nM.

Work on Bivalirudin (peptide) yielded a Ki (Human α-thrombin (human) [2]) of 2 nM.

Boc-dFPR (peptide) gave a Ki (Human α-thrombin (human) [1]) of 4380 nM.

Dansyl-R-(d-Pip)-Abu-NH2 (peptide) gave a Ki (Human α-thrombin (human) [1]) of 820 nM.

For Dansyl-R-(d-Pip)-NH2 (peptide), the Ki (Human α-thrombin (human) [1]) was 370 nM.

Work on Dansyl-R-(d-Tic)-NH2 (peptide) yielded a Ki (Human α-thrombin (human) [1]) of 860 nM.

With H-dFPR (peptide) the Ki (Human α-thrombin (human) [1]) was 1570 nM.
